Measurements as given in patent US20080227128.

Assays:
[1] = system: T1, KPLGSDDSLADY peptide
T1 sequence: KPLGSDDSLADY

[2] = system: T2, MEK substrate (MEKSBS)
T2 sequence: XDPDHDHTGFLTEYVATRW

Substance: purified MEK
- phosphorylation in an in vitro kinase assay [1]: are both phosphorylated in the presence of purified MEK in an in vitro kinase assay
- phosphorylation in an in vitro kinase assay [2]: are both phosphorylated in the presence of purified MEK in an in vitro kinase assay
